Measurements published in patent US20200317768A1 (published 2020).

T1: cynomolgus monkey FcγRIIIaS extracellular domain, His-tagged (cynomolgus monkey, UniProt Q8SPW2 21-206 at identity 1.00))
T1 construct: also called cyno FcγRIIIaS; cynoFcγRIIIaS
T1 chain: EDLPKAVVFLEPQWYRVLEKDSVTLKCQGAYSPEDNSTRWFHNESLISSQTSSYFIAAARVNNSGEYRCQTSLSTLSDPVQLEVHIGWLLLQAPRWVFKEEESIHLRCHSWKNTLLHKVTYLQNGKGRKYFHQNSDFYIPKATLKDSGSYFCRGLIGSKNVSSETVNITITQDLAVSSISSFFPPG

T2: human FcγRIIaH extracellular domain, C-terminal His-tag (human, UniProt P12318 34-217)
T2 construct: also called human FcγRIIa (type H); FcgRIIaH; not shown: His-tag added to C-terminus
T2 sequence: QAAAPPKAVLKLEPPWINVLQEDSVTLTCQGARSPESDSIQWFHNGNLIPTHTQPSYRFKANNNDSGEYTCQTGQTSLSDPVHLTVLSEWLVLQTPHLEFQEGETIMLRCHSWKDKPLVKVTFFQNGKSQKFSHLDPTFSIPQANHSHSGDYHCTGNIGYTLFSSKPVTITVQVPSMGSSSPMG

T3: human FcγRIIb extracellular domain, C-terminal His-tag (human, UniProt P31994 43-217)
T3 construct: also called FcgRIIb (human); not shown: His-tag added to C-terminus
T3 sequence: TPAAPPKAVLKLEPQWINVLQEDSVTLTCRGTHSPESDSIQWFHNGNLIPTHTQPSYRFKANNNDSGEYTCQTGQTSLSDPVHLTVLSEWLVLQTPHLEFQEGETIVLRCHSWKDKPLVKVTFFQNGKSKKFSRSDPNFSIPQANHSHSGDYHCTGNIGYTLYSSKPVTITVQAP

T4: human FcγRIIaR extracellular domain, C-terminal His-tag (human, UniProt P12318 34-217)
T4 construct: also called human FcγRIIa (type R); FcgRIIaR; not shown: His-tag added to C-terminus
T4 chain: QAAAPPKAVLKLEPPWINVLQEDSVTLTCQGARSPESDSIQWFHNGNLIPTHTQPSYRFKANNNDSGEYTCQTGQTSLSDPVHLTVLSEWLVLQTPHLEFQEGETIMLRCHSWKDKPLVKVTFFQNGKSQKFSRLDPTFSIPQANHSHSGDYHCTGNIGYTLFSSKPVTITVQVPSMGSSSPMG

T5: cynomolgus monkey FcγRIIa3 extracellular domain, C-terminal His-tag (cynomolgus monkey)
T5 construct: also called cyno FcγRIIa3; cynoFcgRIIa3; not shown: His-tag added to C-terminus
T5 chain: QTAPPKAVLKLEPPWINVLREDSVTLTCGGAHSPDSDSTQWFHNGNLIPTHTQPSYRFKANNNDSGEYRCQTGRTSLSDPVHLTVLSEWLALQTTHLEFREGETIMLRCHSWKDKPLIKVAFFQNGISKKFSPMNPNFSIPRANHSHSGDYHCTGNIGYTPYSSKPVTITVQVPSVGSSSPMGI

T6: cynomolgus monkey FcγRIIa1 extracellular domain, C-terminal His-tag (cynomolgus monkey)
T6 construct: also called cyno FcγRIIa1; cynoFcgRIIa1; not shown: His-tag added to C-terminus
T6 chain: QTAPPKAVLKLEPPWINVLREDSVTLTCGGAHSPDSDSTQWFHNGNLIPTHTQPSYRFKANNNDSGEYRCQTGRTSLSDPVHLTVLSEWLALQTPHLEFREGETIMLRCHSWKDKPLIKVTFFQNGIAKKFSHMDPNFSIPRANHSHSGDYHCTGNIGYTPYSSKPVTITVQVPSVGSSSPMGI

T7: cynomolgus monkey FcγRIIa2 extracellular domain, C-terminal His-tag (cynomolgus monkey)
T7 construct: also called cyno FcγRIIa2; cynoFcgRIIa2; not shown: His-tag added to C-terminus
T7 chain: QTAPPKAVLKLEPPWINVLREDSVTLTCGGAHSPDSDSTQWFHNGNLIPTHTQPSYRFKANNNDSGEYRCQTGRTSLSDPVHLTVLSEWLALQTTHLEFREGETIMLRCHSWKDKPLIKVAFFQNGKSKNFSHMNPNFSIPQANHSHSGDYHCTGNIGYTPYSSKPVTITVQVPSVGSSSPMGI


Tests used:
[1] = biological target: T1, cynomolgus monkey FcγRIIIaS …; assay: SPR; KD of SG1 / KD of variant
[2] = biological target: T2, human FcγRIIaH extracellular domain, …; assay: SPR (Biacore), antibody captured, FcgR analyte, 25 C
[3] = biological target: T3, human FcγRIIb extracellular domain, …; assay: as above
[4] = biological target: T4, human FcγRIIaR extracellular domain, …; assay: as above
[5] = biological target: T8, human FcγRIIIaV extracellular domain, C-terminal His-tag (human, UniProt P08637 17-208); assay: as above
T8 construct: also called FcgRIIIaV; not shown: His-tag added to C-terminus

[6] = biological target: T5, cynomolgus monkey FcγRIIa3 …; assay: as above
[7] = biological target: T6, cynomolgus monkey FcγRIIa1 …; assay: as above
[8] = biological target: T7, cynomolgus monkey FcγRIIa2 …; assay: as above

T8 sequence (P08637 17-208 F176V): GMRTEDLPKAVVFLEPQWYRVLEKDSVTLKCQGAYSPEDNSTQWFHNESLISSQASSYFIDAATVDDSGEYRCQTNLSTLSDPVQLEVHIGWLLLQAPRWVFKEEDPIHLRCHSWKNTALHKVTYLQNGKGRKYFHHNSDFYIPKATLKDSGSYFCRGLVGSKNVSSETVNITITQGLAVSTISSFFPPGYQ

KD fold (SG1 = 1) [1] | Binder | other results
1 fold | MS_M103205H795-SG1/M103202L889-SK1 (antibody, human IgG1, kappa, Parent antibody of the Fc variants; heavy chain constant region SG1, light chain M103202L889-SK1; also called MS1032LO06-SG1) heavy: not shown light: DIVMTQSPATLSLSPGERATLSCTSSQSVYHANWLSWFQQKPGQPPKLLIYWASTLAYGVPSRFSGSGSGTDFTLTISSLQPEDAATYYCAGGYGGGRYAFGQGTKVEIKRTVAAPSVFIFPPSDEQLKSGTASVVCLLNNFYPREAKVQWKVDNALQSGNSQESVTEQDSKDSTYSLSSTLTLSKADYEKHKVYACEVTHQGLSSPVTKSFNRGEC | 
0.9 fold | M103205H795-MY014/M103202L889-SK1 (antibody, human IgG1, kappa, Substitution put into M103205H795-SG1) heavy: not shown light: DIVMTQSPATLSLSPGERATLSCTSSQSVYHANWLSWFQQKPGQPPKLLIYWASTLAYGVPSRFSGSGSGTDFTLTISSLQPEDAATYYCAGGYGGGRYAFGQGTKVEIKRTVAAPSVFIFPPSDEQLKSGTASVVCLLNNFYPREAKVQWKVDNALQSGNSQESVTEQDSKDSTYSLSSTLTLSKADYEKHKVYACEVTHQGLSSPVTKSFNRGEC | 
1.64 fold | M103205H795-MY010/M103202L889-SK1 (antibody, human IgG1, kappa, Substitution put into M103205H795-SG1) heavy: not shown light: DIVMTQSPATLSLSPGERATLSCTSSQSVYHANWLSWFQQKPGQPPKLLIYWASTLAYGVPSRFSGSGSGTDFTLTISSLQPEDAATYYCAGGYGGGRYAFGQGTKVEIKRTVAAPSVFIFPPSDEQLKSGTASVVCLLNNFYPREAKVQWKVDNALQSGNSQESVTEQDSKDSTYSLSSTLTLSKADYEKHKVYACEVTHQGLSSPVTKSFNRGEC | 
1.8 fold | M103205H795-MY037/M103202L889-SK1 (antibody, human IgG1, kappa, Substitution put into M103205H795-SG1) heavy: not shown light: DIVMTQSPATLSLSPGERATLSCTSSQSVYHANWLSWFQQKPGQPPKLLIYWASTLAYGVPSRFSGSGSGTDFTLTISSLQPEDAATYYCAGGYGGGRYAFGQGTKVEIKRTVAAPSVFIFPPSDEQLKSGTASVVCLLNNFYPREAKVQWKVDNALQSGNSQESVTEQDSKDSTYSLSSTLTLSKADYEKHKVYACEVTHQGLSSPVTKSFNRGEC | 
1.16 fold | M103205H795-MY038/M103202L889-SK1 (antibody, human IgG1, kappa, Substitution put into M103205H795-SG1) heavy: not shown light: DIVMTQSPATLSLSPGERATLSCTSSQSVYHANWLSWFQQKPGQPPKLLIYWASTLAYGVPSRFSGSGSGTDFTLTISSLQPEDAATYYCAGGYGGGRYAFGQGTKVEIKRTVAAPSVFIFPPSDEQLKSGTASVVCLLNNFYPREAKVQWKVDNALQSGNSQESVTEQDSKDSTYSLSSTLTLSKADYEKHKVYACEVTHQGLSSPVTKSFNRGEC | 
1.38 fold | M103205H795-MY041/M103202L889-SK1 (antibody, human IgG1, kappa, Substitution put into M103205H795-SG1) heavy: not shown light: DIVMTQSPATLSLSPGERATLSCTSSQSVYHANWLSWFQQKPGQPPKLLIYWASTLAYGVPSRFSGSGSGTDFTLTISSLQPEDAATYYCAGGYGGGRYAFGQGTKVEIKRTVAAPSVFIFPPSDEQLKSGTASVVCLLNNFYPREAKVQWKVDNALQSGNSQESVTEQDSKDSTYSLSSTLTLSKADYEKHKVYACEVTHQGLSSPVTKSFNRGEC | 
0.43 fold | M103205H795-MY043/M103202L889-SK1 (antibody, human IgG1, kappa, Substitution put into M103205H795-SG1) heavy: not shown light: DIVMTQSPATLSLSPGERATLSCTSSQSVYHANWLSWFQQKPGQPPKLLIYWASTLAYGVPSRFSGSGSGTDFTLTISSLQPEDAATYYCAGGYGGGRYAFGQGTKVEIKRTVAAPSVFIFPPSDEQLKSGTASVVCLLNNFYPREAKVQWKVDNALQSGNSQESVTEQDSKDSTYSLSSTLTLSKADYEKHKVYACEVTHQGLSSPVTKSFNRGEC | 
1.13 fold | M103205H795-MY006/M103202L889-SK1 (antibody, human IgG1, kappa, Substitution put into M103205H795-SG1) heavy: not shown light: DIVMTQSPATLSLSPGERATLSCTSSQSVYHANWLSWFQQKPGQPPKLLIYWASTLAYGVPSRFSGSGSGTDFTLTISSLQPEDAATYYCAGGYGGGRYAFGQGTKVEIKRTVAAPSVFIFPPSDEQLKSGTASVVCLLNNFYPREAKVQWKVDNALQSGNSQESVTEQDSKDSTYSLSSTLTLSKADYEKHKVYACEVTHQGLSSPVTKSFNRGEC | 
0.97 fold | M103205H795-MY008/M103202L889-SK1 (antibody, human IgG1, kappa, Substitution put into M103205H795-SG1) heavy: not shown light: DIVMTQSPATLSLSPGERATLSCTSSQSVYHANWLSWFQQKPGQPPKLLIYWASTLAYGVPSRFSGSGSGTDFTLTISSLQPEDAATYYCAGGYGGGRYAFGQGTKVEIKRTVAAPSVFIFPPSDEQLKSGTASVVCLLNNFYPREAKVQWKVDNALQSGNSQESVTEQDSKDSTYSLSSTLTLSKADYEKHKVYACEVTHQGLSSPVTKSFNRGEC | 
1.09 fold | M103205H795-MY013/M103202L889-SK1 (antibody, human IgG1, kappa, Substitution put into M103205H795-SG1) heavy: not shown light: DIVMTQSPATLSLSPGERATLSCTSSQSVYHANWLSWFQQKPGQPPKLLIYWASTLAYGVPSRFSGSGSGTDFTLTISSLQPEDAATYYCAGGYGGGRYAFGQGTKVEIKRTVAAPSVFIFPPSDEQLKSGTASVVCLLNNFYPREAKVQWKVDNALQSGNSQESVTEQDSKDSTYSLSSTLTLSKADYEKHKVYACEVTHQGLSSPVTKSFNRGEC | 
0.77 fold | M103205H795-MY044/M103202L889-SK1 (antibody, human IgG1, kappa, Substitution put into M103205H795-SG1) heavy: not shown light: DIVMTQSPATLSLSPGERATLSCTSSQSVYHANWLSWFQQKPGQPPKLLIYWASTLAYGVPSRFSGSGSGTDFTLTISSLQPEDAATYYCAGGYGGGRYAFGQGTKVEIKRTVAAPSVFIFPPSDEQLKSGTASVVCLLNNFYPREAKVQWKVDNALQSGNSQESVTEQDSKDSTYSLSSTLTLSKADYEKHKVYACEVTHQGLSSPVTKSFNRGEC | 
1.57 fold | M103205H795-MY016/M103202L889-SK1 (antibody, human IgG1, kappa, Substitution put into M103205H795-SG1) heavy: not shown light: DIVMTQSPATLSLSPGERATLSCTSSQSVYHANWLSWFQQKPGQPPKLLIYWASTLAYGVPSRFSGSGSGTDFTLTISSLQPEDAATYYCAGGYGGGRYAFGQGTKVEIKRTVAAPSVFIFPPSDEQLKSGTASVVCLLNNFYPREAKVQWKVDNALQSGNSQESVTEQDSKDSTYSLSSTLTLSKADYEKHKVYACEVTHQGLSSPVTKSFNRGEC | 
 | M103205H795-MY321/M103202L889-SK1 (antibody, human IgG1, kappa) heavy: QVTLKESGPVLVKPTETLTLTCTVSGIDLSHDDISWVRQAPGKGLEWVGIISYAGSTYYASWAKGRLTISKDTSKNQVVLTMTNMDPVDTATYYCARGVPAYSHGGDLWGQGTLVTVSSASTKGPSVFPLAPSSKSTSGGTAALGCLVKDYFPEPVTVSWNSGALTSGVHTFPAVLQSSGLYSLSSVVTVPSSSLGTQTYICNVNHKPSNTKVDKKVEPKSCDKTHTCPPCPAPELLHGPSVFLFPPKPKDTLMISRTPEVTCVVVDVSDEDPEVKFNWYVDGVEVHNAKTKPREEQYNSTYRVVSVLTVLHQDWLNGKEYKCKVSNKALPKPIEKTISKAKGQPREPQVYTLPPSREEMTKNQVSLTCLVKGFYPSDIAVEWESNGQPENNYKTTPMVLDSDGSFFLYSKLTVDKSRWQQGNVFSCSVMHEALHNHYTQKSLSLSP light: DIVMTQSPATLSLSPGERATLSCTSSQSVYHANWLSWFQQKPGQPPKLLIYWASTLAYGVPSRFSGSGSGTDFTLTISSLQPEDAATYYCAGGYGGGRYAFGQGTKVEIKRTVAAPSVFIFPPSDEQLKSGTASVVCLLNNFYPREAKVQWKVDNALQSGNSQESVTEQDSKDSTYSLSSTLTLSKADYEKHKVYACEVTHQGLSSPVTKSFNRGEC | Kd [2]: 71 nM; Kd [3]: 2600 nM; Kd [4]: 350 nM; Kd [5]: 3400 nM; Kd [6]: 2900 nM; Kd [7]: 2300 nM; Kd [8]: 2200 nM
